The values that follow come from patent publication US20180142018A1 (NOVIMMUNE, published 2018).

Test [1] deals with T1, human CD19 (human, UniProt P15391 20-556).
T1 construct: whole, on cells; also called huCD19
T1 sequence (looked up): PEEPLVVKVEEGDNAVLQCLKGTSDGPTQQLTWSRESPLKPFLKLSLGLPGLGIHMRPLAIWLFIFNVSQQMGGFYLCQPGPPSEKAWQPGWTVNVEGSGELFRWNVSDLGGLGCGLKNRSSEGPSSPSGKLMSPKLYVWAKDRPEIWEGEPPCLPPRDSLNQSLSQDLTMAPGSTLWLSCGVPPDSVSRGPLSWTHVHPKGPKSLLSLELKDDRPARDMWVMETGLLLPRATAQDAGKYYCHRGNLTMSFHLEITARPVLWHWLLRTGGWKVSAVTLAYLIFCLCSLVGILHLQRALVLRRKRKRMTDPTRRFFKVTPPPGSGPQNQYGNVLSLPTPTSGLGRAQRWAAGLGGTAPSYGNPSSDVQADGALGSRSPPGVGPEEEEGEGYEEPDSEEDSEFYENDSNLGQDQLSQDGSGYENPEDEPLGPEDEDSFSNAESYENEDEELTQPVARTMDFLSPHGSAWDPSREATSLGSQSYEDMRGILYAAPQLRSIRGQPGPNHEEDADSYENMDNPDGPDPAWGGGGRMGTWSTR
As to the kind of experiment: FACS on human PBMC gated on CD20+ B lymphocytes, 30 and 3 µg/mL. As to the method:
(§1) The ability of various anti-CD19 antibodies of the disclosure to bind various peripheral blood mononuclear cells (PBMC). Human and cynomolgus PBMC from frozen aliquots in citrate buffer were tested. […] The PBMC were labelled with anti-CD20-PE monoclonal antibody (mAb), anti-CD14-FITC mAb, and anti-CD3-PerCP mAb cross-reactive both to human and cynomolgus species. Cell surface bound hIgG1 were detected with a mouse anti-human IgG Fc-APC mAb. FACS gating was performed with the anti-CD20 mAb for the B lymphocyte population, with the anti-CD3 for the T lymphocyte population and with anti-CD14 for the monocyte population.

The target of a further test is T2, cynomolgus CD19 (cynomolgus monkey, UniProt A0A2K5W8L9 20-557).
T2 construct: whole, on cells; also called cynoCD19; cynomolgus monkey CD19
T2 sequence: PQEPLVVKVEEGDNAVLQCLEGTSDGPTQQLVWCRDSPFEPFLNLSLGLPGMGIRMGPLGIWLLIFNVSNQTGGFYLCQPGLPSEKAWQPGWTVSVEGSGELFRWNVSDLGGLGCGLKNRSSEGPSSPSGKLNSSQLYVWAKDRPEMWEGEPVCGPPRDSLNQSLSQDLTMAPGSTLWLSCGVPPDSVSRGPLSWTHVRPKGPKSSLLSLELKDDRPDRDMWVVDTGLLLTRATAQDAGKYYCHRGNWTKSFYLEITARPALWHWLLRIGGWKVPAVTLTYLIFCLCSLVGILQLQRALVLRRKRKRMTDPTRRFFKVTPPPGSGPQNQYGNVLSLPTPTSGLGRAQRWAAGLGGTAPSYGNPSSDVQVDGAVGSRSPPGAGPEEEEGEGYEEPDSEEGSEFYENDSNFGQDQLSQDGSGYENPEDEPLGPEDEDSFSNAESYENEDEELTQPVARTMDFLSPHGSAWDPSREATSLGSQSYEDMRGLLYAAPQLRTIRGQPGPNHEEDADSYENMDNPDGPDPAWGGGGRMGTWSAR
Kind of test: FACS on PBMC CD20+ B lymphocytes; human over cynomolgus, told of the group of anti-CD19 antibodies. As to the method: as §1

Test [2] deals with T1, human CD19. As to the kind of experiment: FACS on human B lymphocyte cell lines (Raji, Ramos, Nalm6, Su-DHL6, Su-DHL4, Mec2); binding lost on CD19-silenced Raji siRNA. As to the method: The ability of various anti-CD19 antibodies of the disclosure to bind various human B lymphocyte cell lines was evaluated. In particular, the human IgG1 5F5, 7F11, 9G8, F6, 7F1, and 10D8 anti-CD19 antibodies were evaluated for their abilities to bind (i) six human B lymphocyte cell lines: Raji, Ramos, Nalm6, Su-DHL6, Su-DHL4, and Mec2, (ii) a CD19 silenced B cell line: Raji siRNA; and a negative cell line (Jurkat). All incubations were prepared in FACS buffer (PBS, BSA 2%) at 4° C. Fc receptors on B cells were blocked with 10% mouse serum. Four doses of hIgG1 were tested: 10, 1, 0.1 and 0.01 μg/mL. Cell surface bound hIgG1 were detected with a mouse anti-human IgG Fc-PE mAb.

Where only a bound is given, the exact number is not on record here.

B1: 7F11 antibody (antibody, human IgG1, V domains shown)
VH: EVQLVQSGAEVKKPGESLKISCKGSGYSFTSYWIGWVRQMPGKGLEWMGIIYPGDSDTRYSPSFQGQVTISADKSISTAYLQWSSLKASDTAMYYCARGVSGIYNLHGFDIWGQGTLVTVSS
VL: DIQMTQSPSSLSASVGDRVTITCRASQSISSYLNWYQQKPGKAPKLLIYAASSLQSGVPSRFSGSGSGTDFTLTISSLQPEDFATYYCQQGMWDNPFTFGQGTKVEIK
notes: also called human IgG1 7F11 anti-CD19 antibody
With B1, the binding result in the test with human CD19 [1] is “binds”. In addition, the “fold higher binding on human than on cynomolgus PBMC” value (shortened to “fold higher binding on human than”) with cynomolgus CD19 is ≤ 10 fold.

B2: 9G8 antibody (antibody, human IgG1, V domains shown)
VH: EVQLVQSGAEVKKPGESLKISCKGSGYSFTSYWIGWVRQMPGKGLEWMGIIYPGDSDTRYSPSFQGQVTISADKSISTAYLQWSSLKASDTAMYYCARGVSGIYNLHGFDIWGQGTLVTVSS
VL: DIQMTQSPSSLSASVGDRVTITCRASQSISSYLNWYQQKPGKAPKLLIYAASSLQSGVPSRFSGSGSGTDFTLTISSLQPEDFATYYCQQGRFGSPFTFGQGTKVEIK
notes: also called human IgG1 9G8 anti-CD19 antibody
B2: the binding result with human CD19 [1] is recorded as “binds”. For the same molecule, the “fold higher binding on human than” value with cynomolgus CD19 is ≤ 10 fold.

B3: 5F5 antibody (antibody, human IgG1, V domains shown)
VH: EVQLVQSGAEVKKPGESLKISCKGSGYSFTSYWIGWVRQMPGKGLEWMGIIYPGDSDTRYSPSFQGQVTISADKSISTAYLQWSSLKASDTAMYYCARGISGIYNLHGFDIWGQGTLVTVSS
VL: DIQMTQSPSSLSASVGDRVTITCRASQSISSYLNWYQQKPGKAPKLLIYAASSLQSGVPSRFSGSGSGTDFTLTISSLQPEDFATYYCQQASLDSPLTFGQGTKVEIK
notes: also called human IgG1 5F5 anti-CD19 antibody
In the case of B3, the “fold higher binding on human than” value with cynomolgus CD19 was ≤ 10 fold. Also, in the test with human CD19 [2], the binding result is “binds”.

B4: 10D8 antibody (antibody, human IgG1, V domains shown)
VH: QVQLVQSGAEVKKPGSSVKVSCKASGGTFSSYAISWVRQAPGQGLEWMGGIIPIFGTANYAQKFQGRVTITADESTSTAYMELSSLRSEDTAVYYCARDRGYDYVWGSYRYGAFDIWGQGTLVTVSS
VL: QSALTQPASVSGSPGQSITISCTGTSSDVGGYNYVSWYQQHPGKAPKLMIYEVSNRPSGVSNRFSGSKSGNTASLTISGLQAEDEADYYCSSYDVWVPHMVFGGGTKLTVL
notes: also called human IgG1 10D8 anti-CD19 antibody
Regarding B4, the binding result in the test with human CD19 [1] is “binds”.

B5: 7F1 antibody (antibody, human IgG1, V domains shown)
VH: EVQLVQSGAEVKKPGESLKISCKGSGYSFTSYWIGWVRQMPGKGLEWMGIIYPGDSDTRYSPSFQGQVTISADKSISTAYLQWSSLKASDTAMYYCARGDYWTGFAYWGQGTLVTVSS
VL: QSVLTQPPSVSAAPGQKVTISCSGSSSNIGNNYVSWYQQLPGTAPKLLIYDNNKRPSGIPDRFSGSKSGTSATLGITGLQTGDEADYYCGTWDLGWNSVFGGGTKLTVL
notes: also called human IgG1 7F1 anti-CD19 antibody
As for B5, the binding result with human CD19 [1] is on record as “binds”.

B6: F6 antibody (antibody, human IgG1, V domains shown)
VH: EVQLVQSGAEVKKPGESLKISCKGSGYSFTSYWIGWVRQMPGKGLEWMGIIYPGDSDTRYSPSFQGQVTISADKSISTAYLQWSSLKASDTAMYYCARVWYYDFWSGADAFDIWGQGTLVTVSS
VL: EIVMTQSPATLSVSPGERATLSCRASQSVSSNLAWYQQKPGQAPRLLIYGASTRATGIPARFSGSGSGTEFTLTISSLQSEDFAVYYCQQGSLEAPQTFGQGTKVEIK
notes: also called human IgG1 F6 anti-CD19 antibody
For the molecule B6, the binding result with human CD19 [1] was “binds”. In addition, the “fold higher binding on human than” value with cynomolgus CD19 was ≤ 10 fold.
